Here are results for 4 substances from US6989144.

One test deals with collagen type I. The test can be described thus: cell-based or functional assay.
The target of test [1] is GPVI on baboon platelets (baboon). The test can be described thus: flow cytometry, washed baboon platelets; negative control.
For test [2], the target named is soluble human GPVI-Fc (extracellular domain of GPVI fused to Fc; hGPVI-human IgG1Fc) (human) (UniProt Q9HCN6). The test can be described thus: 125I-convulxin binding to GPVI-Fc captured on 1P10.2, 10 µg/ml reagent; competitor ligand convulxin.
Test [3] has as its target GPVI on baboon platelets (baboon). Put plainly: flow cytometry, washed baboon platelets. (In flow cytometry, cells or beads pass a laser one at a time.)

Chain of soluble human GPVI-Fc (extracellular domain of GPVI fused to Fc; hGPVI-human IgG1Fc) (human) (Q9HCN6 other isoform, or with tags, fused parts or gaps): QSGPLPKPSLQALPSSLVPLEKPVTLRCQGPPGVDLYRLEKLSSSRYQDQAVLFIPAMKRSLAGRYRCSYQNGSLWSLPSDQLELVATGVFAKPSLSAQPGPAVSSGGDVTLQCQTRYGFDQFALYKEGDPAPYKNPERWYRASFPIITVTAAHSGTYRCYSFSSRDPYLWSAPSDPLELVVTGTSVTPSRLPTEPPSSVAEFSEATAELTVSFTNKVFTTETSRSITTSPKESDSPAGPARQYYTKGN

Regarding “recombinant human soluble GPVI:Fc (rhusGPVI:Fc) (from UniProt Q9HCN6 21-269) (Fc fusion)”, in the test with collagen type I, the collagen-induced platelet aggregation and secretion came out at 10 fold.

In test [1], “monoclonal antibody 7H14.1 (negative control)” had a Baboon fluorescence intensity of 9 and a Baboon platelets % positive of 6.8%.

For “monoclonal antibody 7120.2 (negative control)”, in test [1], the Baboon fluorescence intensity worked out at 10 and the Baboon platelets % positive was found to be 9%.

“mouse monoclonal antibody produced by hybridoma cell line 9012.2”: in test [2], the % blocking of GPVI-Fc binding to convulxin is above 25%. Also, in test [3], the Baboon fluorescence intensity is 18 and the Baboon platelets % positive turned out to be 33.8%.
